The results in this text go back to the supplement of paper PMC9112550, “Optimization of the antimicrobial peptide Bac7 by deep mutational scanning” (BMC Biology, 2022).

The data set deals with Escherichia coli TOP10. The data set can be described thus: shrunken log2 fold change of peptide-encoding DNA abundance (4.5 h post-induction vs induction); higher = less antimicrobial activity (less host growth inhibition). Conditions: time post-induction: 4.5 h; library: site-saturation at positions 5, 18, 19, 20.
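Also: peptides expressed intracellularly from a pBAD plasmid library in pooled LB shake-flask culture, induced with 0.3% L-arabinose, DNA abundance read by NGS, three biological replicates, DESeq2 with apeglm shrinkage.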

With RRIRPRPPRLPRPRPRPMRYPRP, the “shrunken log2 fold change” value amounted to 0.0689.

Take RRIRWRPPRLPRPRPRPACSPRP: the “shrunken log2 fold change” value amounted to 0.528.

Consider RRIRVRPPRLPRPRPRPMWAPRP, for which the “shrunken log2 fold change” value amounted to 0.0354.

In the case of RRIRHRPPRLPRPRPRPREYPRP, the “shrunken log2 fold change” value was -0.0589.

As for RRIRERPPRLPRPRPRPRCFPRP, the “shrunken log2 fold change” value is -0.128.

Consider RRIRCRPPRLPRPRPRPEDSPRP, for which the “shrunken log2 fold change” value came out at 0.00322.

For the sequence RRIRWRPPRLPRPRPRPPKKPRP, the “shrunken log2 fold change” value was determined as 1.27.

With RRIRFRPPRLPRPRPRPECGPRP, the “shrunken log2 fold change” value stood at 0.175.

Turning to RRIRYRPPRLPRPRPRPEKTPRP, the “shrunken log2 fold change” value stood at 0.0635.

Regarding RRIRTRPPRLPRPRPRPSSHPRP, the “shrunken log2 fold change” value was -0.669.

Regarding RRIRARPPRLPRPRPRPDVNPRP, the “shrunken log2 fold change” value came to 0.0462.

With RRIRDRPPRLPRPRPRPYTPPRP, the “shrunken log2 fold change” value is -0.95.

As for RRIRCRPPRLPRPRPRPPPKPRP, the “shrunken log2 fold change” value amounted to 1.51.

With RRIRVRPPRLPRPRPRPQLIPRP, the “shrunken log2 fold change” value was -0.334.

Consider RRIRDRPPRLPRPRPRPEGCPRP, for which the “shrunken log2 fold change” value turned out to be 0.0171.

With RRIRNRPPRLPRPRPRPLINPRP, the “shrunken log2 fold change” value was -0.533.

As to RRIRPRPPRLPRPRPRPKVHPRP, the “shrunken log2 fold change” value is -0.132.

For the sequence RRIRVRPPRLPRPRPRPRRKPRP, the “shrunken log2 fold change” value amounted to 0.0637.

In the case of RRIRPRPPRLPRPRPRPMEHPRP, the “shrunken log2 fold change” value is -0.0171.

On to RRIRIRPPRLPRPRPRPYRQPRP, for which the “shrunken log2 fold change” value is -0.326.

RRIRERPPRLPRPRPRPYWWPRP: the “shrunken log2 fold change” value is -0.142.

As to RRIRWRPPRLPRPRPRPKTMPRP, the “shrunken log2 fold change” value was 0.35.

RRIRFRPPRLPRPRPRPHGMPRP: the “shrunken log2 fold change” value was -0.00197.

Take RRIRPRPPRLPRPRPRPFNGPRP: the “shrunken log2 fold change” value is -0.014.

As to RRIRIRPPRLPRPRPRPSRCPRP, the “shrunken log2 fold change” value was -0.174.

Regarding RRIRRRPPRLPRPRPRPTFVPRP, the “shrunken log2 fold change” value came out at 0.998.

Consider RRIRLRPPRLPRPRPRPYFRPRP, for which the “shrunken log2 fold change” value was -0.78.

Regarding RRIRKRPPRLPRPRPRPYMSPRP, the “shrunken log2 fold change” value was 0.0659.

As for RRIRFRPPRLPRPRPRPMLEPRP, the “shrunken log2 fold change” value stood at 0.147.

Take RRIRRRPPRLPRPRPRPQITPRP: the “shrunken log2 fold change” value turned out to be 0.0752.

In the case of RRIRLRPPRLPRPRPRPMMNPRP, the “shrunken log2 fold change” value was -0.18.

For the sequence RRIRVRPPRLPRPRPRPYQNPRP, the “shrunken log2 fold change” value is -0.141.

As to RRIRARPPRLPRPRPRPKINPRP, the “shrunken log2 fold change” value is -0.0292.

On to RRIRSRPPRLPRPRPRPKYAPRP, for which the “shrunken log2 fold change” value was -0.323.

Regarding RRIRCRPPRLPRPRPRPDIPPRP, the “shrunken log2 fold change” value is -0.331.

For the sequence RRIRTRPPRLPRPRPRPTQYPRP, the “shrunken log2 fold change” value is -0.207.

In the case of RRIRCRPPRLPRPRPRPDYSPRP, the “shrunken log2 fold change” value was -0.179.

RRIRNRPPRLPRPRPRPWTVPRP: the “shrunken log2 fold change” value is -0.0833.

As to RRIRPRPPRLPRPRPRPKQGPRP, the “shrunken log2 fold change” value was 0.0197.

Regarding RRIRKRPPRLPRPRPRPQHQPRP, the “shrunken log2 fold change” value worked out at 0.122.

RRIRRRPPRLPRPRPRPMEYPRP: the “shrunken log2 fold change” value is -0.0405.

Take RRIRLRPPRLPRPRPRPCAHPRP: the “shrunken log2 fold change” value was -0.417.

RRIRYRPPRLPRPRPRPCAFPRP: the “shrunken log2 fold change” value was -0.353.

Turning to RRIRERPPRLPRPRPRPENAPRP, the “shrunken log2 fold change” value was -0.00683.

Regarding RRIRWRPPRLPRPRPRPDHHPRP, the “shrunken log2 fold change” value is -0.445.

Turning to RRIRHRPPRLPRPRPRPWLCPRP, the “shrunken log2 fold change” value came out at 0.111.

With RRIRLRPPRLPRPRPRPGIFPRP, the “shrunken log2 fold change” value was -0.313.

With RRIRDRPPRLPRPRPRPKPQPRP, the “shrunken log2 fold change” value worked out at 0.111.

On to RRIRMRPPRLPRPRPRPYSFPRP, for which the “shrunken log2 fold change” value was -0.266.

As to RRIRSRPPRLPRPRPRPAQMPRP, the “shrunken log2 fold change” value was 0.437.

Turning to RRIRERPPRLPRPRPRPGCPPRP, the “shrunken log2 fold change” value is 0.0137.

On to RRIRQRPPRLPRPRPRPVRSPRP, for which the “shrunken log2 fold change” value is 0.32.

Take RRIRGRPPRLPRPRPRPHSPPRP: the “shrunken log2 fold change” value turned out to be 0.289.

For the sequence RRIRSRPPRLPRPRPRPAGNPRP, the “shrunken log2 fold change” value is -0.0422.

In the case of RRIRLRPPRLPRPRPRPTPTPRP, the “shrunken log2 fold change” value is 0.786.

For RRIRVRPPRLPRPRPRPVPHPRP, the “shrunken log2 fold change” value worked out at 0.135.

For the sequence RRIRQRPPRLPRPRPRPSCRPRP, the “shrunken log2 fold change” value is -0.28.

RRIRQRPPRLPRPRPRPWSAPRP: the “shrunken log2 fold change” value is -0.277.

Consider RRIRNRPPRLPRPRPRPHPYPRP, for which the “shrunken log2 fold change” value is -0.654.

In the case of RRIRKRPPRLPRPRPRPAEDPRP, the “shrunken log2 fold change” value is 1.33.

As to RRIRRRPPRLPRPRPRPQTYPRP, the “shrunken log2 fold change” value was -0.0324.

As to RRIRKRPPRLPRPRPRPVDGPRP, the “shrunken log2 fold change” value is 0.344.
